Values joined by “and” are separate entries in the source; they are usually repeats but may differ in a detail not shown here. Identical values can stand only once.
Experiments:
[1] = target: SARS-CoV-2 Spike protein on pseudotyped lentivirus (SARS-CoV-2, UniProt P0DTC2 14-1273); assay: cell-based or functional assay
[2] = target: T1, SARS-CoV-2 Spike receptor binding domain (RBD) (SARS-CoV-2, UniProt P0DTC2 319-541)
[3] = target: T1, SARS-CoV-2 Spike receptor binding …; assay: SPR, biotinylated RBD on a CAP chip
[4] = target: SARS-CoV-2 Spike protein on pseudotyped lentivirus (SARS-CoV-2, UniProt P0DTC2 14-1273); assay: cell-based or functional assay; remark: listed apart in the source

B1: Nb6 (AeroNab6, NbCOV6, clone pNbCOV006A) (VHH)
VHH: QVQLVESGGGLVQAGGSLRLSCAASGIIFGRNAMGWYRQAPGKERELVAGITRRGSITYYADSVKGRFTISRDNAKNTVYLQMNSLKPEDTAVYYCAADPASPAPGDYWGQGTQVTVSS
notes: also called AeroNab6 MASC monomer; Parent clone (NbCOV6)
IC50, inhibition of pseudovirus infection of ACE2 expressing HEK293T cells [1]: 2000 nM | EC50 [2]: 190 nM | Kd [3]: 41 nM

B2: mNb6-tri (trivalent mNb6 with a 20 amino acid linker) (VHH)
chain: QVQLVESGGGLVQAGGSLRLSCAASGYIFGRNAMGWYRQAPGKERELVAGITRRGSITYYADSVKGRFTISRDNAKNTVYLQMNSLKPEDTAVYYCAADPASPAYGDYWGQGTQVTVSSGGGGSGGGGSGGGGSGGGGSQVQLVESGGGLVQAGGSLRLSCAASGYIFGRNAMGWYRQAPGKERELVAGITRRGSITYYADSVKGRFTISRDNAKNTVYLQMNSLKPEDTAVYYCAADPASPAYGDYWGQGTQVTVSSGGGGSGGGGSGGGGSGGGGSQVQLVESGGGLVQAGGSLRLSCAASGYIFGRNAMGWYRQAPGKERELVAGITRRGSITYYADSVKGRFTISRDNAKNTVYLQMNSLKPEDTAVYYCAADPASPAYGDYWGQGTQVTVSS
IC50, pseudovirus infection assay [1]: 120 pM and 5 ng/mL

B3: Nb11 (clone pNbCOV011A) (VHH)
VHH: HVQLVESGGGLVQAGGSLRLSCAVSGASAERVGWFRRAPGKEREFVAAIGANGGSTNYLDSVKGRFTISRDNAKNTVYLQMNSLKPQDTAVYYCAARNLETFDYTYWGRGTQVTVSS
IC50, inhibition of pseudovirus infection of ACE2 expressing HEK293T cells [4]: 2400 nM

B4: Nb6-tri (trivalent Nb6 with two 20 amino acid linkers) (VHH)
chain: QVQLVESGGGLVQAGGSLRLSCAASGIIFGRNAMGWYRQAPGKERELVAGITRRGSITYYADSVKGRFTISRDNAKNTVYLQMNSLKPEDTAVYYCAADPASPAPGDYWGQGTQVTVSSGGGGSGGGGSGGGGSGGGGSQVQLVESGGGLVQAGGSLRLSCAASGIIFGRNAMGWYRQAPGKERELVAGITRRGSITYYADSVKGRFTISRDNAKNTVYLQMNSLKPEDTAVYYCAADPASPAPGDYWGQGTQVTVSSGGGGSGGGGSGGGGSGGGGSQVQLVESGGGLVQAGGSLRLSCAASGIIFGRNAMGWYRQAPGKERELVAGITRRGSITYYADSVKGRFTISRDNAKNTVYLQMNSLKPEDTAVYYCAADPASPAPGDYWGQGTQVTVSS
IC50, inhibition of pseudovirus infection of ACE2 expressing HEK293T cells [1]: 1.2 nM | fold enhancement of inhibitory activity against Nb6, pseudovirus [1]: 2000 fold
